Results as given in IntAct's records for PubMed 20173330.

Each substance was assayed against jip4_mouse Spag9 (UniProt Q58A65).
UniProt Q58A65, sequence (Q58A65 whole entry): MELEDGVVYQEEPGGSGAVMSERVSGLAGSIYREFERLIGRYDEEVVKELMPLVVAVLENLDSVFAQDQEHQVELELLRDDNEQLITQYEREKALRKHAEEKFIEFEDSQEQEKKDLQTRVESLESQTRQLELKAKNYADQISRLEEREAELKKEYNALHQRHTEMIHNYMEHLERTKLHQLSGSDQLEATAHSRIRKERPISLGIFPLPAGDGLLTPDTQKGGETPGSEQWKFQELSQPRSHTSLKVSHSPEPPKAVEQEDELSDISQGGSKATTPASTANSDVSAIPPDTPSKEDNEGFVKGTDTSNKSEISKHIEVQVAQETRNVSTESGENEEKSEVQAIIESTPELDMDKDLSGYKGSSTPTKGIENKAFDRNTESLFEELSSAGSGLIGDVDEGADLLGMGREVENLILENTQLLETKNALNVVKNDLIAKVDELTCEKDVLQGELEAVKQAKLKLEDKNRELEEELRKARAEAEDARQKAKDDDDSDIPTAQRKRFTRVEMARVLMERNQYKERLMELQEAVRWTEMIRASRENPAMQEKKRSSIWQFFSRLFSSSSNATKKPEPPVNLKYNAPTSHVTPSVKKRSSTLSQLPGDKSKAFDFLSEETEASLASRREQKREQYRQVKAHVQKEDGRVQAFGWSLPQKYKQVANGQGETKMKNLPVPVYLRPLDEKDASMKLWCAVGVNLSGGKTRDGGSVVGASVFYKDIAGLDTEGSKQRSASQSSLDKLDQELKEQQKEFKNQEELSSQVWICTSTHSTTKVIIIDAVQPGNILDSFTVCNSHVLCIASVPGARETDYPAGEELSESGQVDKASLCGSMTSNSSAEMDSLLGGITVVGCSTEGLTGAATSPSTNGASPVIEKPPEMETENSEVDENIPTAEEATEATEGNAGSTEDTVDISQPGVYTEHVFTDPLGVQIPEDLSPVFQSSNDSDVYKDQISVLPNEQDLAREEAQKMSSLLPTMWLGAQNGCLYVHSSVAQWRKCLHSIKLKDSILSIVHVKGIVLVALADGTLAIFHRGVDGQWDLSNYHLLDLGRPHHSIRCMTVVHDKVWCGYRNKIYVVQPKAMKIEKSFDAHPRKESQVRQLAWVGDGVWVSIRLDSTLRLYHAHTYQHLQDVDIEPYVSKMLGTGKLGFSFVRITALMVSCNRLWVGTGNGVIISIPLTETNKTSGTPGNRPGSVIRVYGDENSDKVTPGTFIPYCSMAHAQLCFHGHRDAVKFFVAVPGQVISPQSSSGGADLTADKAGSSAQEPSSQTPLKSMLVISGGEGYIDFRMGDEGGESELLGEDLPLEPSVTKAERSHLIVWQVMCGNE

effect of a mutation on the interaction	Substance
increasing interaction	Leucine-rich repeat serine/threonine-protein kinase 2 (Homo sapiens), Q5S007 G2019S
increasing interaction	Leucine-rich repeat serine/threonine-protein kinase 2 (Homo sapiens), Q5S007 I2020T
increasing interaction	Leucine-rich repeat serine/threonine-protein kinase 2 (Homo sapiens), Q5S007 R1441C
decreasing interaction	Leucine-rich repeat serine/threonine-protein kinase 2 (Homo sapiens), Q5S007 Y1699C
